Laboratory results: patent US20220041738A1 (SAITAMA MEDICAL UNIVERSITY, published 2022)
Changes are numbered by the printed parent chain. One block for each binder: values may come before it.

What was measured:
Assay in all cases: flow cytometry on transfected HEK293A cells, Alexa 647 anti-rat IgG (APC-A) against EGFP (FITC-A)
[1] = biological target: T1, human ALK2(WT)-EGFP on cells (human, UniProt Q04771 21-509)
T1 construct: also called hALK2(WT)-EGFP; human ALK2-EGFP; not shown: EGFP fused to ALK2
T1 sequence: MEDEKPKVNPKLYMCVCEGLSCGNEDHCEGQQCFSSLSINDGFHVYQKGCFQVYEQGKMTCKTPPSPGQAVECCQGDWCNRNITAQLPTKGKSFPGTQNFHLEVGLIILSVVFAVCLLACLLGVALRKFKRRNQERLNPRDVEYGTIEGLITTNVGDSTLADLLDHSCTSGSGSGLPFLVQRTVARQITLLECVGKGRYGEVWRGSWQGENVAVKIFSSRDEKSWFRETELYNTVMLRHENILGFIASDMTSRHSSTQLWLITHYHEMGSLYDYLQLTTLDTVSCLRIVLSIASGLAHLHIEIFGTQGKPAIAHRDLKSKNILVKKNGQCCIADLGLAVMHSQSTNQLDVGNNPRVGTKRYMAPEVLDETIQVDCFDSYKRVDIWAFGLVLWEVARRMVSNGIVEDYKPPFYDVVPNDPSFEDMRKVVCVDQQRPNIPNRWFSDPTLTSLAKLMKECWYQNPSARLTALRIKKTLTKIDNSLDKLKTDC
Method: (§1) HEK293A cells were seeded into a 100-mm dish at 3×10⁴ cells/cm², and cultured overnight in 15% FBS-containing DMEM medium under the conditions of 5% CO₂ at 37° C. On the following day, the HEK293A cells were transfected with each of pcDEF3/mouse ALK2(WT)-EGFP, pcDEF3/human ALK2(WT)-EGFP, pcDEF3/human ALK2 (R206H)-EGFP, and pcDEF3, using Lipofectamine 2000 (Invitrogen), and further cultured overnight. On the following day, 100 μL each of the cell suspensions adjusted to 1×10⁶ cells/mL was dispensed into a 1.5-mL microfuge and centrifuged at 500 g for 5 minutes, and then the supernatant was removed. To the cells, 100 μL of purified IgG diluted to 1 μg/mL was added, and the cells were left for 30 minutes at 4° C. After the cells were washed with PBS three times, 100 μL of Alexa flour 647 Goat anti-Rat IgG (H+L) (Life Technologies) diluted to 1:200 was added, and the cells were further left for 30 minutes at 4° C. After the cells were washed with PBS three times, fluorescence was detected by a flow cytometer (FACS Aria II: BD Biosciences). The data was analyzed using BD Diva Software (BD Biosciences), and the intensity of EGFP expressed by the cells and the fluorescence intensity of stained Alexa flour 647 were plotted.

[2] = biological target: T2, mouse ALK2(WT)-EGFP on HEK293A cells (mouse, UniProt P37172 21-509)
T2 construct: Expressed from pcDEF3/mouse ALK2(WT)-EGFP; also called mALK2(WT)-EGFP; wild-type mouse ALK2; not shown: EGFP fused to ALK2
T2 sequence: T1 sequence with M1V, P10Q, L121I, D162E, P310S
Method: as §1

[3] = biological target: T3, human ALK2(R206H)-EGFP on HEK293A cells (human, UniProt Q04771 21-509)
T3 construct: also called hALK2(R206H)-EGFP; FOP human ALK2; not shown: EGFP fused to ALK2
T3 sequence: T1 sequence with R186H
Method: as §1

binding result [1]: binds | binding result [2]: binds | binding result [3]: binds
B1: rat anti-ALK2 monoclonal antibody A2-15A (antibody, V domains shown)
VH: EVQLVESGGGLVQPGRSLKLSCAASGFTFSHYYMAWVRQAPTKGLEWVASITNSGGSINYRDSVKGRFTISRDNAKSTLYLQMDSLRSEDTATYYCTREGGENYGGYPPFAYWGQGTLVTVSS
VL: DIVLTQSPALAVSLGQRATISCRANQGVSLSRYNLMHWYQQKPGQKPKLLIYRSSNLASGIPARFSGSGSGTDFTLTINPVQADDIATYYCQQSRESPFTFGAGTKLELKR
notes: Rat monoclonal IgG from a hybridoma; also called 15A6

binding result [1]: binds | binding result [2]: binds | binding result [3]: binds
B2: rat anti-ALK2 monoclonal antibody A2-25C (antibody, V domains shown)
VH: EVQLVESGGGLVQPGGSLKLSCAASGFTFSYYAMSWVCQAPTKGLEWVASISRGGDNTYYRDTVKGRFTTSRDNAKNTLYLQMDSLRSEDTATYYCARLNYNNYFDYWGQGVMVTVSS
VL: DIQMTQSPASLSASLEEIVTITCQASQDIGNWLSWYQQKPGKSPQLLIYGATSLADGVPSRFSGSRSGTQYSLKISRLRVEDIGIYYCLQAYSAPFTFGSGTKLEIKR
notes: Rat monoclonal IgG from a hybridoma; also called 25C11

binding result [1]: binds | binding result [2]: binds | binding result [3]: binds
B3: rat anti-ALK2 monoclonal antibody A2-11E (antibody, V domains shown)
VH: EVQLVETGGGLVQPGRSLKLSCVASGFTFSNYYMYWIRQAPGKGLEWISSINTDGGSTYYPDSVKGRFAISRDNAENTVYLQMNSLRSEDTATYYCAKSTPNIPLAYWGQGTLVTVSS
VL: DIQMTQSPSLLSASVGDRVTLSCKASQNIYKYLNWFQQKLGEAPKLLIYYSNSLQTGIPSRFSGSGSGTDFTLTISSLQPEDVAIYFCFQYSSGPTFGPGTKLELKR
notes: Rat monoclonal IgG from a hybridoma; also called 11E2

binding result [1]: binds | binding result [2]: binds | binding result [3]: binds
B4: rat anti-ALK2 monoclonal antibody A2-27D (antibody, V domains shown)
VH: EVQLVESGGGLVQPGRSLKLSCLASGSTFSNYGMKWIRQAPGKGLEWVASISRSSTYIYYADTVKGRFTISRDNARNTLYLQMTSLRSEDTALYYCAAAISTPFYWYFDFWGPGTVVTVSS
VL: EIVLTQSPTTMAASPGEKVTLNCLASSSVSYMTWYQQKSGASPKLWIYGTSNLASGVPNRFSGSGSGTSYSLAISSMEAEDVATYYCLHLTSYPPYTFGAGTKLELKR
notes: Rat monoclonal IgG from a hybridoma; also called 27D11
